Results on three molecules are retold here after article PMC5331437, “Synthesis of Mono- and Di-Glucosides of Zearalenone and α-/β-Zearalenol by Recombinant Barley Glucosyltransferase HvUGT14077” (Toxins, 2017).

In data set [1] the target is T1, HvUGT14077 (Hordeum vulgare, UniProt D3WYW3).
T1 sequence (D3WYW3 1-490): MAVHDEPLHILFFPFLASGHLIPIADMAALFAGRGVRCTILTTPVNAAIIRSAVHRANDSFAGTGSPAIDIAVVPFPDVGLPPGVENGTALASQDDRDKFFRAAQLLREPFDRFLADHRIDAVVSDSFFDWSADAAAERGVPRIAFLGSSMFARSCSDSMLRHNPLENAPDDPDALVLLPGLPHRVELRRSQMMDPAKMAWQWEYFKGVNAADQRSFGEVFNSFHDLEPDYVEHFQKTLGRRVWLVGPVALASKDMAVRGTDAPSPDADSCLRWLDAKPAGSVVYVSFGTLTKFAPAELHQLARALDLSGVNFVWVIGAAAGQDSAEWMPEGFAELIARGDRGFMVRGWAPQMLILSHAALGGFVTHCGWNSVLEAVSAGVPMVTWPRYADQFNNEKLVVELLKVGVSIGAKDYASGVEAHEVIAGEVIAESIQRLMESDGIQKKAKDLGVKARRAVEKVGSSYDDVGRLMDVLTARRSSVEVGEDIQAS
Nature of the data set: LC-MS/MS, steady state, sum of […]- and 16-glucosides, Haldane fit. Further details: gene UGT. To be noted: read-out: Kinetic Constant / Km; 10 mM UDP-glucose; 100 mM Tris/Cl pH 7.5, 37 °C; apparent Km, substrate inhibition model.

Data set [2] has as its target T1, HvUGT14077. The experiment in a line: LC-MS/MS of glucoside formation. It is filed as biochemical. Further details: gene UGT; nHis6-MalE-TEV-HvUGT14077 fusion (tags kept), E. coli BL21 (DE3), IMAC, predicted 97 kDa incl. tags.
Substrate in data set [3]: C[C@H]1CCC[C@@H](O)CCC/C=C/c2cc(O)cc(O)c2C(=O)O1
Nature of the data set: purified protein. The conditions noted are these: 10 mM UDP-glucose, 100 mM Tris/Cl pH 7.5, 37 °C, apparent Km, substrate inhibition model.

Substrate in data set [4]: C[C@H]1CCC[C@H](O)CCC/C=C/c2cc(O)cc(O)c2C(=O)O1
Nature of the data set: purified protein. The conditions noted are these: 10 mM UDP-glucose, 100 mM Tris/Cl pH 7.5, 37 °C, apparent Km, substrate inhibition model.

Substrate in data set [5]: O=c1ccn([C@@H]2O[C@H](CO[P@@](=O)(O)O[P@@](=O)(O)O[C@H]3O[C@H](CO)[C@@H](O)[C@H](O)[C@H]3O)[C@@H](O)[C@H]2O)c(=O)[nH]1
The experiment in a line: purified protein. The conditions noted are these: 25 µM zearalenone, 100 mM Tris/Cl pH 7.5, 37 °C.

With `C[C@H]1CCCC(=O)CCC/C=C/c2cc(O)cc(O)c2C(=O)O1` [ZEN, Zearalenone], the Km at HvUGT14077 [1] was 3 ± 1 µM.
`O=c1ccn([C@@H]2O[C@H](COP(=O)(O)OP(=O)(O)O)[C@@H](O)[C@H]2O)c(=O)[nH]1` [UDP]: the 50% inhibitory concentration (IC50) – broadly, the concentration that gives 50% inhibition – on HvUGT14077 [2] was 340 µM.

B1: HvUGT14077 (Hordeum vulgare subsp. vulgare) (protein)
chain: T1 sequence (D3WYW3 1-490)
B1: in the data set “purified protein [3]”, the Km stood at 27 ± 3 µM; the Vmax (in general, the top rate of the reaction or transport when substrate is in excess) was 1.2 µmol/min/mg; the kcat (commonly the number of substrate molecules converted per active site and unit of time at saturation) is 2 ± 0.1 s⁻¹; the kcat/Km (commonly the second-order rate constant that governs catalysis at low substrate concentration) is 74000 M⁻¹ s⁻¹. Also, in the data set “purified protein [4]”, the Km stood at 13 ± 2 µM, the Vmax worked out at 0.32 µmol/min/mg, the kcat is 0.52 ± 0.05 s⁻¹ and the kcat/Km came to 40000 M⁻¹ s⁻¹. For the same molecule, in “purified protein [5]”, the Km is 78 ± 9 µM.
